{"source": "paper PMC4022432", "about": "“Complete steady-state rate equation for DNA ligase and its use for measuring product kinetic parameters of NAD^+-dependent DNA ligase from Haemophilus influenzae” (BMC Research Notes, 2014)", "substrate": "NC(=O)c1ccc[n+]([C@@H]2O[C@H](COP(=O)(O)OP(=O)(O)OC[C@H]3O[C@@H](n4cnc5c(N)ncnc54)[C@H](O)[C@@H]3O)[C@@H](O)[C@H]2O)c1", "assay": "purified protein", "details": "co-substrate nicked DNA 10-80 nM; room temperature; value from NMN study", "excerpt": "FRET nick-ligation assay, global nonlinear least-squares fit of NMN product inhibition on NAD^+-dependent DNA ligase from Haemophilus influenzae", "data": [{"protein": "NAD^+-dependent DNA ligase from Haemophilus influenzae (Haemophilus influenzae Rd KW20) (protein) MTNIQTQLDNLRKTLRQYEYEYHVLDNPSVPDSEYDRLFHQLKALELEHPEFLTSDSPTQRVGAKPLSGFSQIRHEIPMLSLDNAFSDAEFNAFVKRIEDRLILLPKPLTFCCEPKLDGLAVSILYVNGELTQAATRGDGTTGEDITANIRTIRNVPLQLLTDNPPARLEVRGEVFMPHAGFERLNKYALEHNEKTFANPRNAAAGSLRQLDPNITSKRPLVLNAYGIGIAEGVDLPTTHYARLQWLKSIGIPVNPEIRLCNGADEVLGFYRDIQNKRSSLGYDIDGTVLKINDIALQNELGFISKAPRWAIAYKFPAQEELTLLNDVEFQVGRTGAITPVAKLEPVFVAGVTVSNATLHNGDEIERLNIAIGDTVVIRRAGDVIPQIIGVLHERRPDNAKPIIFPTNCPVCDSQIIRIEGEAVARCTGGLFCAAQRKEALKHFVSRKAMDIDGVGGKLIEQLVDRELIHTPADLFKLDLTTLTRLERMGAKSAENALNSLENAKSTTLARFIFALGIREVGEATALNLANHFKTLDALKDANLEELQQVPDVGEVVANRIFIFWREAHNVAVVEDLIAQGVHWETVEVKEASENLFKDKTVVLTGTLTQMGRNEAKALLQQLGAKVSGSVSSKTDFVIAGDAAGSKLAKAQELNITVLTEEEFLAQITR", "values": [{"measurement": "Km", "value": "650 ± 80", "unit": "nM"}]}]}
